Where two headings read alike, the source gives them in different places.

Assay [1] addresses Alf1p-myc (S. cerevisiae) (UniProt P53904). In words: co-IP.
Assay [2] shares this target. Kind of assay: co-IP. The source holds these as a separate data set.

UniProt P53904, sequence (P53904 whole entry): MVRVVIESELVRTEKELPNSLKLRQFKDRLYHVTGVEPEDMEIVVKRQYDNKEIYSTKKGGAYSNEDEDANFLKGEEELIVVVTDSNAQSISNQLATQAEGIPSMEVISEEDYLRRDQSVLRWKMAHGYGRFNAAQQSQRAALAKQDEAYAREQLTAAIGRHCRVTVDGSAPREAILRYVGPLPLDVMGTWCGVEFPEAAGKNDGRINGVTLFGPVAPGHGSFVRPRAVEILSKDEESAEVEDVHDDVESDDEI

Regarding “α-tubulin, endogenous in yeast extract (from UniProt P09733 1-447) (natural protein)”, the ratio of α-tubulin to β-tubulin precipitated came out at 2 fold in assay [1] and 20 fold in assay [2].

These data come from article PMC2148126.
